Data set [1] deals with the molecule itself. Description: SEC + other: negative-stain electron microscopy.
Data set [2] concerns the molecule itself. Description: negative-stain electron microscopy; Talon eluate (TBS, 140 mM imidazole) of recombinant His-tagged protein applied at once to carbon grids, 2% uranyl acetate.

B1: bifunctional acetaldehyde-alcohol dehydrogenase AdhE (Streptococcus pneumoniae), native spirosomes (enzyme)
chain: MKAMEENMADKKTVTPEEKKLVAEKHVDELVQKALVALEEMRKLNQEQVDYIVAKASVAALDAHGELALHAFEETGRGVFEDKATKNLFACEHVVNNMRHTKTVGVIEEDDVTGLTLIAEPVGVVCGITPTTNPTSTAIFKSLISLKTRNPIVFAFHPSAQESSAHAARIVRDAAIAAGAPENCVQWITQPSMEATSALMNHEGVATILATGGNAMVKAAYSCGKPALGVGAGNVPAYVEKSANIRQAAHDIVMSKSFDNGMVCASEQAVIIDKEIYDEFVAEFKSYHTYFVNKKEKALLEEFCFGVKANSKNCAGAKLNADIVGKPATWIAEQAGFTVPEGTNILAAECKEVGENEPLTREKLSPVIAVLKSESREDGITKARQMVEFNGLGHSAAIHTADEELTKEFGKAVKAIRVICNSPSTFGGIGDVYNAFLPSLTLGCGSYGRNSVGDNVSAINLLNIKKVGRRRNNMQWMKLPSKTYFERDSIQYLQKCRDVERVMIVTDHAMVELGFLDRIIEQLDLRRNKVVYQIFADVEPDPDITTVNRGTEIMRAFKPDTIIALGGGSPMDAAKVMWLFYEQPEVDFRDLVQKFMDIRKRAFKFPLLGKKTKFIAIPTTSGTGSEVTPFAVISDKANNRKYPIADYSLTPTVAIVDPALVLTVPGFVAADTGMDVLTHATEAYVSQMASDYTDGLALQAIKLVFENLESSVKNADFHSREKMHNASTIAGMAFANAFLGISHSMAHKIGAQFHTIHGRTNAILLPYVIRYNGTRPAKTATWPKYNYYRADEKYQDIARMLGLPASTPEEGVESYAKAVYELGERIGIQMNFRDQGIDEKEWKEHSRELAFLAYEDQCSPANPRLPMVDHMQEIIEDAYYGYKERPGRRK
notes: also called spirosin; 'plaited' filaments
With B1, in data set [1], the binding result was “binds”.

B2: AdhE^S.pneumoniae, C-terminally hexahistidine-tagged, expressed in E. coli (enzyme)
chain: MKAMEENMADKKTVTPEEKKLVAEKHVDELVQKALVALEEMRKLNQEQVDYIVAKASVAALDAHGELALHAFEETGRGVFEDKATKNLFACEHVVNNMRHTKTVGVIEEDDVTGLTLIAEPVGVVCGITPTTNPTSTAIFKSLISLKTRNPIVFAFHPSAQESSAHAARIVRDAAIAAGAPENCVQWITQPSMEATSALMNHEGVATILATGGNAMVKAAYSCGKPALGVGAGNVPAYVEKSANIRQAAHDIVMSKSFDNGMVCASEQAVIIDKEIYDEFVAEFKSYHTYFVNKKEKALLEEFCFGVKANSKNCAGAKLNADIVGKPATWIAEQAGFTVPEGTNILAAECKEVGENEPLTREKLSPVIAVLKSESREDGITKARQMVEFNGLGHSAAIHTADEELTKEFGKAVKAIRVICNSPSTFGGIGDVYNAFLPSLTLGCGSYGRNSVGDNVSAINLLNIKKVGRRRNNMQWMKLPSKTYFERDSIQYLQKCRDVERVMIVTDHAMVELGFLDRIIEQLDLRRNKVVYQIFADVEPDPDITTVNRGTEIMRAFKPDTIIALGGGSPMDAAKVMWLFYEQPEVDFRDLVQKFMDIRKRAFKFPLLGKKTKFIAIPTTSGTGSEVTPFAVISDKANNRKYPIADYSLTPTVAIVDPALVLTVPGFVAADTGMDVLTHATEAYVSQMASDYTDGLALQAIKLVFENLESSVKNADFHSREKMHNASTIAGMAFANAFLGISHSMAHKIGAQFHTIHGRTNAILLPYVIRYNGTRPAKTATWPKYNYYRADEKYQDIARMLGLPASTPEEGVESYAKAVYELGERIGIQMNFRDQGIDEKEWKEHSRELAFLAYEDQCSPANPRLPMVDHMQEIIEDAYYGYKERPGRRK
notes: not shown: His6, C-terminal, kept
In the case of B2, in data set [2], the binding result is “binds”.

The values are drawn from article PMC4398557, “Conserved Streptococcus pneumoniae Spirosomes Suggest a Single Type of Transformation Pilus in Competence” (PLoS Pathogens, 2015).
